# According to patent publication US20210355194A1 (TWIST BIOSCIENCE, published 2021):
# Like-named read-outs stand apart in the source and are kept apart here.
# Key:
# [1] = target: T1, SARS-CoV-2 S1 (antigen of the Carterra SPR kinetics) (SARS-CoV-2, UniProt P0DTC2 16-685); assay: Carterra SPR
# [2] = target: T2, COVID S1 RBD Fc fusion (Antigen 1) (SARS-CoV-2, UniProt P0DTC2 319-541); assay: phage ELISA
# [3] = target: T3, S1 Fc fusion protein (SARS-CoV-2, UniProt P0DTC2 14-685); assay: phage ELISA
# T3 construct: domain: S1
# [4] = target: T4, COVID S1 RBM Fc fusion (Antigen 2) (SARS-CoV-2, UniProt P0DTC2 437-508); assay: phage ELISA
# T4 construct: domain: RBM
# [5] = target: T1, SARS-CoV-2 S1 (antigen of the Carterra …); assay: Carterra SPR; remark: listed apart in the source
# [6] = target: T2, COVID S1 RBD Fc fusion (Antigen 1); assay: phage ELISA; remark: listed apart in the source
# [7] = target: T3, S1 Fc fusion protein; assay: phage ELISA; remark: listed apart in the source
# [8] = target: T4, COVID S1 RBM Fc fusion (Antigen 2); assay: phage ELISA; remark: listed apart in the source
# [9] = target: T5, COVID S1 RBM Fc fusion (Antigen 2) (SARS-CoV-2, UniProt P0DTC2 437-508); assay: phage ELISA
# [10] = target: T6, COVID S1 RBD Fc fusion (Antigen 1) (SARS-CoV-2, UniProt P0DTC2 319-541); assay: phage ELISA; remark: listed apart in the source
# [11] = target: T7, S1 Fc fusion protein (SARS-CoV-2, UniProt P0DTC2 14-685); assay: phage ELISA
# [12] = target: T5, COVID S1 RBM Fc fusion (Antigen 2); assay: phage ELISA; remark: listed apart in the source
# [13] = target: T6, COVID S1 RBD Fc fusion (Antigen 1); assay: phage ELISA; remark: listed apart in the source
# [14] = target: T7, S1 Fc fusion protein; assay: phage ELISA; remark: listed apart in the source
Binder,Kd [1],koff [1],kon [1],ELISA fold over background [2],ELISA fold over background [3],ELISA fold over background [4],koff [5],kon [5],ELISA fold over background [6],ELISA fold over background [7],ELISA fold over background [8],ELISA fold over background [9],ELISA fold over background [10],ELISA fold over background [11],ELISA fold over background [12],ELISA fold over background [13],ELISA fold over background [14]
"SARS-CoV-2 S1 variant 2-2 (antibody, V domains shown) VH: EVQLLESGGGLVQPGGSLRLSCAASGFTFSRHAMNWVRQAPGKGLEWVSGISGSGDETYYADSVKGRFTISRDNSKNTLYLQMNSLRAEDTAVYYCARDLPASYYDSSGYYWHNGMDVWGQGTLVTVSS VL: DIQMTQSPSSLSASVGDRVTITCRASQTINTYLNWYQQKPGKAPKLLIYSASTLQSGVPSRFSGSGSGTDFTLTISSLQPEDFATYYCQQSYSTFTFGQGTKVEIK",11.7 nM,0.000906 s⁻¹,77400 M⁻¹ s⁻¹,39.6 fold,4.7 fold,1.1 fold,0.000906 s⁻¹,77400 M⁻¹ s⁻¹,39.6 fold,4.7 fold,1.1 fold,–,–,–,–,–,–
"SARS-CoV-2 variant 1-25 (antibody, V domains shown) VH: EVQLLESGGGLVQPGGSLRLSCAASGFTFSDYAMNWVRQAPGKGLEWVSIISGSGGSTYYADSVKGRFTISRDNSKNTLYLQMNSLRAEDTAVYYCAREGYRDYLWYFDLWGQGTLVTVSS VL: QSALTQPASVSGSPGQSITISCSGTSSDVGSYNLVSWYQQHPGKAPKLMIYEASKRPSGVSNRFSGSKSGNTASLTISGLQAEDEADYYCCSYAGSSTVFGGGTKLTVL",–,–,–,–,–,–,–,–,–,–,–,0.8 fold,2.7 fold,1 fold,0.8 fold,2.7 fold,1 fold
"SARS-CoV-2 variant 1-23 (antibody, V domains shown) VH: EVQLLESGGGLVQPGGSLRLSCAASGFTFSSYAISWVRQAPGKGLEWVSIISGSGGSTYYADSVKGRFTISRDNSKNTLYLQMNSLRAEDTAVYYCAREGYRDYLWYFDLWGQGTLVTVSS VL: QSALTQPASVSGSPGQSITISCTGTSNDVGSYNLVSWYQQHPGKAPKLMIYEGNKRPSGVSNRFSGSKSGNTASLTISGLQAEDEADYYCCSYAGSYTVFGGGTKLTVL",–,–,–,–,–,–,–,–,–,–,–,1.6 fold,3.6 fold,1.6 fold,1.6 fold,3.6 fold,1.6 fold
"SARS-CoV-2 variant 1-24 (antibody, V domains shown) VH: EVQLLESGGGLVQPGGSLRLSCAASGFTFSSYAMNWVRQAPGKGLEWVSIISGSGGSTYYADSVKGRFTISRDNSKNTLYLQMNSLRAEDTAVYYCAREGYRDYLWYFDLWGQGTLVTVSS VL: QSALTQPASVSGSPGQSITISCTGTSSDVGYYNLVSWYQQHPGKAPKLMIYEGNKRPSGVSNRFSGSKSGNTASLTISGLQAEDEADYYCCSYAGGSVVFGGGTKLTVL",–,–,–,–,–,–,–,–,–,–,–,1.3 fold,11 fold,1.1 fold,1.3 fold,11 fold,1.1 fold
"SARS-CoV-2 variant 1-27 (antibody, V domains shown) VH: EVQLLESGGGLVQPGGSLRLSCAASGFTFSSYAMTWVRQAPGKGLEWVSAISGSGGGTYYADSVKGRFTISRDNSKNTLYLQMNSLRAEDTAVYYCASSSSWQFDYWGQGTLVTVSS VL: QSALTQPASVSGSPGQSITISCTGTSSYVGHYNLVSWYQQHPGKAPKLMIYEGSRRPSGVSNRFSGSKSGNTASLTISGLQAEDEADYYCCSYAGSYTHYVFGGGTKLTVL",–,–,–,–,–,–,–,–,–,–,–,1.6 fold,1.9 fold,1.3 fold,1.6 fold,1.9 fold,1.3 fold
"SARS-CoV-2 variant 1-10 (antibody, V domains shown) VH: EVQLLESGGGLVQPGGSLRLSCAASGFTFSSYDMSWVRQAPGKGLEWVSVISGSGGSTYYADSVKGRFTISRDNSKNTLYLQMNSLRAEDTAVYYCAKGPLVGWYFDLWGQGTLVTVSS VL: QSALTQPASVSGSPGQSITISCTGTSSNVGSYNLVSWYQQHPGKAPKLMIYEGTKRPSGVSNRFSGSKSGNTASLTISGLQAEDEADYYCCSYAGSSSFVVFGGGTKLTVL",–,–,–,–,–,–,–,–,–,–,–,1.1 fold,17.4 fold,1.3 fold,1.1 fold,17.4 fold,1.3 fold
"SARS-CoV-2 variant 1-36 (antibody, V domains shown) VH: EVQLLESGGGLVQPGGSLRLSCAASGLTFSSYAMSWVRQAPGKGLEWVSDISGSGGSTYYADSVKGRFTISRDNSKNTLYLQMNSLRAEDTAVYYCVKGTIPIFGVIRSAFDYWGQGTLVTVSS VL: QSALTQPASVSGSPGQSITISCTGTSSDVGSYSLVSWYQQHPGKAPKLMIYEGDKRPSGVSNRFSGSKSGNTASLTISGLQAEDEADYYCCSYAGSYSYVVFGGGTKLTVL",–,–,–,–,–,–,–,–,–,–,–,0.8 fold,1.2 fold,1.1 fold,0.8 fold,1.2 fold,1.1 fold
"SARS-CoV-2 variant 1-7 (antibody, V domains shown) VH: EVQLLESGGGLVQPGGSLRLSCAASGFTFSSYDMSWVRQAPGKGLEWVSVISGSGGSTYYADSVKGRFTISRDNSKNTLYLQMNSLRAEDTAVYYCAKGPLVGWYFDLWGQGTLVTVSS VL: QSALTQPASVSGSPGQSITISCTGTSSDFGSYNLVSWYQQHPGKAPKLMIYEGNKRPSGVSNRFSGSKSGNTASLTISGLQAEDEADYYCCSYAGSSTFVVFGGGTKLTVL",–,–,–,–,–,–,–,–,–,–,–,1.6 fold,3.3 fold,1.7 fold,1.6 fold,3.3 fold,1.7 fold
"SARS-CoV-2 variant 1-35 (antibody, V domains shown) VH: EVQLLESGGGLVQPGGSLRLSCAASGFTFSNYAMSWVRQAPGKGLEWVSDISGSGGSTYYADSVKGRFTISRDNSKNTLYLQMNSLRAEDTAVYYCVKGTIPIFGVIRSAFDYWGQGTLVTVSS VL: QSALTQPASVSGSPGQSITISCTGTSSDVGSYSLVSWYQQHPGKAPKLMIYEGTKRPSGVSNRFSGSKSGNTASLTISGLQAEDEADYYCCSYAGSYSYVVFGGGTKLTVL",–,–,–,–,–,–,–,–,–,–,–,1.6 fold,1.8 fold,1.4 fold,1.6 fold,1.8 fold,1.4 fold
"SARS-CoV-2 S1 variant 2-5 (antibody, V domains shown) VH: EVQLLESGGGLVQPGGSLRLSCAASGFTFSDFAMAWVRQAPGKGLEWVSAISGSGDITYYADSVKGRFTISRDNSKNTLYLQMNSLRAEDTAVYYCAREADGLHSPWHFDLWGQGTLVTVSS VL: DIQMTQSPSSLSASVGDRVTITCRASQSIHTYLNWYQQKPGKAPKLLIYAASALASGVPSRFSGSGSGTDFTLTISSLQPEDFATYYCQQSYSAPPYTFGQGTKVEIK",2.8 nM,0.000259 s⁻¹,93900 M⁻¹ s⁻¹,35.9 fold,24.3 fold,1.1 fold,0.000259 s⁻¹,93900 M⁻¹ s⁻¹,35.9 fold,24.3 fold,1.1 fold,–,–,–,–,–,–
"SARS-CoV-2 variant 1-48 (antibody, V domains shown) VH: EVQLLESGGGLVQPGGSLRLSCAASGFTFSSHAMYWVRQAPGKGLEWVSAISGSAGSTYYADSVKGRFTISRDNSKNTLYLQMNSLRAEDTAVYYCAHDTKDFWSGYCIFDPWGQGTLVTVSS VL: QSALTQPASVSGSPGQSITISCTGTSSDIGSYNLVSWYQQHPGKAPKLMIYEGTKRPSGVSNRFSGSKSGNTASLTISGLQAEDEADYYCCSYAGSRTYVFGGGTKLTVL",–,–,–,–,–,–,–,–,–,–,–,0.8 fold,2.1 fold,0.8 fold,0.8 fold,2.1 fold,0.8 fold
